Laboratory results: publication PMC9482650, “Quantitative fragmentomics allow affinity mapping of interactomes” (Nature Communications, 2022)
One block for each binder: values may come before it.

Assays:
Experiment in all cases: holdup assay
Design in all cases: key: below the threshold = too weak to quantify, mostly under pKd 3.1 to 4
PDZRN4_1, Q6ZMN7 = molecular target: PDZRN4_1, Q6ZMN7
Inadl_4, Q8NI35 = molecular target: Inadl_4, Q8NI35
DLG1_1, Q12959 = molecular target: DLG1_1, Q12959
PTPN3, P26045 = molecular target: PTPN3, P26045
PARD3B_1, Q8TEW8 = molecular target: T1, PARD3B_1, Q8TEW8
T1 sequence (Q8TEW8 196-299, limits assumed, looked up): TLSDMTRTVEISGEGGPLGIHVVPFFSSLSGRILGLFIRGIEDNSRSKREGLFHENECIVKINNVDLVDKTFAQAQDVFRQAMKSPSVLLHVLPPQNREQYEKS

DLG3_3, Q92796 = molecular target: T2, DLG3_3, Q92796
T2 sequence (Q92796 374-475, limits assumed, looked up): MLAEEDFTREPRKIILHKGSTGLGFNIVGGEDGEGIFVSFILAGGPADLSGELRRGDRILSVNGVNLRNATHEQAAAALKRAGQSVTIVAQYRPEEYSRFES

MAGI1_1, Q96QZ7 = molecular target: MAGI1_1, Q96QZ7
RAPGEF6, Q8TEU7 = molecular target: T3, RAPGEF6, Q8TEU7
T3 sequence (Q8TEU7 525-625, limits assumed, looked up): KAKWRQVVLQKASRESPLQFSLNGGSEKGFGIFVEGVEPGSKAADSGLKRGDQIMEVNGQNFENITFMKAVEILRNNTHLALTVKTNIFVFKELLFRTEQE

HTRA3, P83110 = molecular target: T4, HTRA3, P83110
T4 sequence (P83110 354-453, limits assumed, looked up): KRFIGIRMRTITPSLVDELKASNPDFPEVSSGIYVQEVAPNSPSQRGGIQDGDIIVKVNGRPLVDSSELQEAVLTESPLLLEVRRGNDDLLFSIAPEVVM

MAST1, Q9Y2H9 = molecular target: MAST1, Q9Y2H9
GRIP1_2, Q9Y3R0 = molecular target: T5, GRIP1_2, Q9Y3R0
T5 sequence (Q9Y3R0 145-248, limits assumed, looked up): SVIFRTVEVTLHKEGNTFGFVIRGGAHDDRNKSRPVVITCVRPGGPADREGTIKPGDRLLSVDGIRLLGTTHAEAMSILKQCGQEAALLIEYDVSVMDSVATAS

NHERF2_2, Q15599 = molecular target: NHERF2_2, Q15599
PARD3_3, Q8TEW0 = molecular target: PARD3_3, Q8TEW0
TX1BP3, O14907 = molecular target: T6, TX1BP3, O14907
T6 sequence (O14907 10-122, limits assumed, looked up): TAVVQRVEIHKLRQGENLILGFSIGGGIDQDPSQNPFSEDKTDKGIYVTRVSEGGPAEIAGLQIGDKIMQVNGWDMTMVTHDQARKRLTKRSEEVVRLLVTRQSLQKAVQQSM

GRIP1_4, Q9Y3R0 = molecular target: T7, GRIP1_4, Q9Y3R0
T7 sequence (Q9Y3R0 467-571, limits assumed, looked up): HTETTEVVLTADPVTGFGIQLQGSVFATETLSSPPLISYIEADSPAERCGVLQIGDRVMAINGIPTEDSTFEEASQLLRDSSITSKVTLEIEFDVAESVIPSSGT

MPP6, Q9NZW5 = molecular target: T8, MPP6, Q9NZW5
T8 sequence (Q9NZW5 125-219, limits assumed, looked up): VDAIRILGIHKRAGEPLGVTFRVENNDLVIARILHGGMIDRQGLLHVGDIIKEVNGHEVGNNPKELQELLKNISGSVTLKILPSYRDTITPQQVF

SCRIB_3, Q14160 = molecular target: SCRIB_3, Q14160
GRIP2_3, Q9C0E4 = molecular target: GRIP2_3, Q9C0E4
LIMK2, P53671 = molecular target: LIMK2, P53671
Inadl_9, Q8NI35 = molecular target: Inadl_9, Q8NI35
PDZD7_3, Q9H5P4 = molecular target: T9, PDZD7_3, Q9H5P4
T9 sequence (Q9H5P4 857-944, limits assumed, looked up): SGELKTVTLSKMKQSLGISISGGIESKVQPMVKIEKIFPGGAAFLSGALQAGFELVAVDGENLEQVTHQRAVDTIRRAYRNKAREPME

HTRA4, P83105 = molecular target: T10, HTRA4, P83105
T10 sequence (P83105 378-476, limits assumed, looked up): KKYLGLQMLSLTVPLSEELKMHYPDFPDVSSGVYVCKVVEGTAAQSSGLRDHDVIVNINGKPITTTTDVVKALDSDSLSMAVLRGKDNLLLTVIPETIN

CASK, O14936 = molecular target: CASK, O14936
LNX2_3, Q8N448 = molecular target: T11, LNX2_3, Q8N448
T11 sequence (Q8N448 463-564, limits assumed, looked up): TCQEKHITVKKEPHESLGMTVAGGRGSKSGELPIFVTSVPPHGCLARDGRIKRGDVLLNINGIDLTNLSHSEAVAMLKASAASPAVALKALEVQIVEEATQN

Inadl_10, Q8NI35 = molecular target: Inadl_10, Q8NI35
ARHGEF11, O15085 = molecular target: T12, ARHGEF11, O15085
T12 sequence (O15085 42-136, limits assumed, looked up): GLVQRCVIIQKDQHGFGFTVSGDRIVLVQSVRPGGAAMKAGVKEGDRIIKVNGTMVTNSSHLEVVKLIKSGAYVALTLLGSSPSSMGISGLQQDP

[1] = plain residues with an end cap or a label only (N-terminal biotin on a linker: ahx)
[2] = plain residues with an end cap or a label only (N-terminal biotin on a linker: ado-ado)
[3] = plain residues with an end cap or a label only (N-terminal biotin on a linker: ttds)

Chain of LIMK2, P53671 (P53671 143-248): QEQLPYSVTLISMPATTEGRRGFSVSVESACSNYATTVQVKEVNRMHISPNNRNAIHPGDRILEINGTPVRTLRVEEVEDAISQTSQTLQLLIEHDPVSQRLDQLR
Chain of PTPN3, P26045 (P26045 505-587): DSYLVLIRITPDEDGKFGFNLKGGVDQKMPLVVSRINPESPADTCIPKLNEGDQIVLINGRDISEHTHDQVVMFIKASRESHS
Chain of CASK, O14936 (O14936 487-570): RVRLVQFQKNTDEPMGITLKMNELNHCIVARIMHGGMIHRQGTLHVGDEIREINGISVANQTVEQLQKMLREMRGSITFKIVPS
Chain of MAST1, Q9Y2H9 (Q9Y2H9 962-1065): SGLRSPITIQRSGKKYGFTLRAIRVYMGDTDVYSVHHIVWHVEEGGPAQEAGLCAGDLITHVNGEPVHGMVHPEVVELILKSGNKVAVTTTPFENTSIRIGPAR
Chain of GRIP2_3, Q9C0E4 (Q9C0E4 238-339): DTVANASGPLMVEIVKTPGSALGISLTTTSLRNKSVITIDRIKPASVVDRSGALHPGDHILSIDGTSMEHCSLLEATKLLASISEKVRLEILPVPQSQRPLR
Chain of Inadl_9, Q8NI35 (Q8NI35 1530-1615): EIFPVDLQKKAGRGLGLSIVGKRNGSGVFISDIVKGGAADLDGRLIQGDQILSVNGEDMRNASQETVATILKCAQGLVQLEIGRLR
Chain of MAGI1_1, Q96QZ7 (Q96QZ7 1-106): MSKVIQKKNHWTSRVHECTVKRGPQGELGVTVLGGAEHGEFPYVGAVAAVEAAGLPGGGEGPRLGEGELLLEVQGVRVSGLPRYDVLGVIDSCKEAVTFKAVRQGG
Chain of SCRIB_3, Q14160 (Q14160 999-1103): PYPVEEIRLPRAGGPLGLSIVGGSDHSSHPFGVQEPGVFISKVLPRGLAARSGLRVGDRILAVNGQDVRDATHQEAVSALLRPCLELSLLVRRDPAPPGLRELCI
Chain of PDZRN4_1, Q6ZMN7 (Q6ZMN7 213-318): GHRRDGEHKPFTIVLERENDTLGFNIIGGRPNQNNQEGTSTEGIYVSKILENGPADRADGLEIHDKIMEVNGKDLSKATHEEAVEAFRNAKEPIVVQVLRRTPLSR
Chain of NHERF2_2, Q15599 (Q15599 142-238): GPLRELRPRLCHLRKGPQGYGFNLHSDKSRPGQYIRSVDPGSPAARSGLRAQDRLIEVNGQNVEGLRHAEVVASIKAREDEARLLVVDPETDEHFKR
Chain of PARD3_3, Q8TEW0 (Q8TEW0 582-685): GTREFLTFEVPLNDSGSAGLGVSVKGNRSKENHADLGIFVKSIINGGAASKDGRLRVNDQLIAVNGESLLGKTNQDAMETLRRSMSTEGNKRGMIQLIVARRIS
Chain of Inadl_10, Q8NI35 (Q8NI35 1673-1763): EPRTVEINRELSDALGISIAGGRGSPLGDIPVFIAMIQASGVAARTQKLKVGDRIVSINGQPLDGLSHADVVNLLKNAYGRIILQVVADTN
Chain of Inadl_4, Q8NI35 (Q8NI35 547-651): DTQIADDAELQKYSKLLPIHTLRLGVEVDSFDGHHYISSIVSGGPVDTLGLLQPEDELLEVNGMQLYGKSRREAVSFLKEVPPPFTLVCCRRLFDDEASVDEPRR

pKd (PDZRN4_1, Q6ZMN7; [1]): below the threshold
pKd (Inadl_4, Q8NI35; [1]): below the threshold
pKd (DLG1_1, Q12959; [1]): 4.62
pKd (PTPN3, P26045; [1]): 4.58
pKd (PARD3B_1, Q8TEW8; [1]): below the threshold
pKd (DLG3_3, Q92796; [1]): 4.01
pKd (MAGI1_1, Q96QZ7; [1]): below the threshold
pKd (RAPGEF6, Q8TEU7; [1]): below the threshold
pKd (HTRA3, P83110; [1]): below the threshold
pKd (MAST1, Q9Y2H9; [1]): 4.57
pKd (GRIP1_2, Q9Y3R0; [1]): below the threshold
pKd (NHERF2_2, Q15599; [1]): below the threshold
pKd (PARD3_3, Q8TEW0; [1]): below the threshold
pKd (TX1BP3, O14907; [1]): 5.47
pKd (GRIP1_4, Q9Y3R0; [1]): below the threshold
pKd (MPP6, Q9NZW5; [1]): below the threshold
pKd (SCRIB_3, Q14160; [1]): 5.11
pKd (GRIP2_3, Q9C0E4; [1]): below the threshold
pKd (LIMK2, P53671; [1]): below the threshold
pKd (Inadl_9, Q8NI35; [1]): 3.64
pKd (PDZD7_3, Q9H5P4; [1]): 4.51
pKd (HTRA4, P83105; [1]): 3.9
pKd (CASK, O14936; [1]): below the threshold
pKd (LNX2_3, Q8N448; [1]): below the threshold
pKd (Inadl_10, Q8NI35; [1]): below the threshold
pKd (ARHGEF11, O15085; [1]): below the threshold
Binder: HTHSYIETHV [CNKSR2, Q8WXI2]

pKd (PTPN3, P26045; [2]): 4.55
pKd (RAPGEF6, Q8TEU7; [2]): below the threshold
pKd (TX1BP3, O14907; [2]): 4.5
pKd (GRIP1_4, Q9Y3R0; [2]): below the threshold
pKd (LIMK2, P53671; [2]): below the threshold
pKd (PDZD7_3, Q9H5P4; [2]): below the threshold
pKd (CASK, O14936; [2]): below the threshold
Binder: KRPEMTSSSV [MUC3B, MUC3A, Q02505;Q9H195]

pKd (PDZRN4_1, Q6ZMN7; [3]): 4.76
pKd (Inadl_4, Q8NI35; [3]): below the threshold
pKd (DLG1_1, Q12959; [3]): 5.14
pKd (PTPN3, P26045; [3]): 4.68
pKd (PARD3B_1, Q8TEW8; [3]): below the threshold
pKd (DLG3_3, Q92796; [3]): 5.34
pKd (MAGI1_1, Q96QZ7; [3]): below the threshold
pKd (RAPGEF6, Q8TEU7; [3]): 3.44
pKd (HTRA3, P83110; [3]): below the threshold
pKd (MAST1, Q9Y2H9; [3]): 5.29
pKd (GRIP1_2, Q9Y3R0; [3]): below the threshold
pKd (NHERF2_2, Q15599; [3]): 3.78
pKd (PARD3_3, Q8TEW0; [3]): 3.46
pKd (TX1BP3, O14907; [3]): 4.75
pKd (GRIP1_4, Q9Y3R0; [3]): below the threshold
pKd (MPP6, Q9NZW5; [3]): below the threshold
pKd (SCRIB_3, Q14160; [3]): 4.85
pKd (GRIP2_3, Q9C0E4; [3]): below the threshold
pKd (LIMK2, P53671; [3]): below the threshold
pKd (Inadl_9, Q8NI35; [3]): 3.39
pKd (PDZD7_3, Q9H5P4; [3]): 4.86
pKd (HTRA4, P83105; [3]): 3.38
pKd (CASK, O14936; [3]): below the threshold
pKd (LNX2_3, Q8N448; [3]): below the threshold
pKd (Inadl_10, Q8NI35; [3]): below the threshold
pKd (ARHGEF11, O15085; [3]): 4.46
Binder: SVWLRKETRV [CYSLTR2, Q9NS75]
